Test results: the supplement of paper PMC9732359
± gives the uncertainty stated by the source.

Assay: protein stability index of a GFP-peptide fusion (yeast GPS) (PSI 1-4); higher = more stable; sorted into four equal gates, so the index is relative within each strain
Method in brief: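 Each library plasmid carries Cherry plus GFP with a tiled 17-residue yeast protein peptide fused downstream, and the pooled library was carried in yeast. Mid-log cultures in leucine-free medium were sorted into four equal gates by GFP/Cherry ratio. Reads from Illumina sequencing of PCR-amplified plasmids from each gate were assigned to strains by barcodes. Per peptide, the protein stability index was computed as the summed products of gate read frequency and gate number.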

Sequence | protein stability index (doa10∆) | protein stability index (pdr5∆) | protein stability index (san1∆) | protein stability index (ubr1∆)
NGQYAAFVKDMQVYLVP [RPC37] | 2.67 ± 0.12 | 1.52 ± 0.089 | 1.4 ± 0.073 | 1.83 ± 0.12
NGQPLNQNFSLTFQPQQ [GRR1] | 3.09 ± 0.051 | 3.12 ± 0.047 | 3.04 ± 0.051 | 3.01 ± 0.043
ATTQDQVASIIESFVEL [NUT2] | 2.11 ± 0.071 | 2.65 ± 0.076 | 2.17 ± 0.15 | 2.49 ± 0.054
PDIADIPRTFRTPVPST [SNF5] | 2.12 ± 0.093 | 1.96 ± 0.059 | 2.04 ± 0.064 | 2.01 ± 0.072
LQQGMRGAWGKPHGLAA [RPL10] | 2.47 ± 0.1 | 2.57 ± 0.097 | 2.24 ± 0.23 | 2.52 ± 0.069
DFDDSTAQEINFKMLVL [IRR1] | 2.59 ± 0.064 | 2.66 ± 0.053 | 2.67 ± 0.058 | 2.9 ± 0.054
DIWSISKKRQAEKLVPL [YML031W/NDC1] | 2.64 ± 0.089 | 2.78 ± 0.076 | 2.35 ± 0.073 | 2.55 ± 0.062
YDRNSNNNHKDKKLLRR [SWI1] | 3.09 ± 0.053 | 3.17 ± 0.05 | 3.06 ± 0.06 | 3.23 ± 0.041
NVTFGSKKDPRILKNVS [YMR153W/NUP53] | 2.81 ± 0.053 | 2.69 ± 0.056 | 2.81 ± 0.045 | 2.67 ± 0.035
VLGNSRGVDAGKGNTFE [RPN14] | 2.73 ± 0.25 | 3.01 ± 0.17 | 3.66 ± 0.11 | 3.3 ± 0.12
SFDVAISTACPRLDDVV [SMC4] | 3.12 ± 0.083 | 3.34 ± 0.051 | 3.1 ± 0.075 | 3.11 ± 0.078
NMEIRNLRLKILTIIEE [GRR1] | 1.62 ± 0.065 | 1.53 ± 0.049 | 1.83 ± 0.078 | 1.33 ± 0.046
QGPIVADKNCAKLHRIS [PUP1] | 3.41 ± 0.15 | 2.94 ± 0.088 | 2.79 ± 0.1 | 2.64 ± 0.072
LILIPGETMWVPIKSSK [RPN13] | 2.17 ± 0.083 | 2.51 ± 0.068 | 2.61 ± 0.057 | 1.81 ± 0.055
IGAGVPSLEVASEYIET [FAS1] | 3.38 ± 0.15 | 3.12 ± 0.18 | 2.18 ± 0.23 | 
LALGCHFQDQKNKKIEV [POP7] | 2.65 ± 0.18 | 2.97 ± 0.16 | 2.92 ± 0.12 | 2.29 ± 0.11
EKQTPNKKDKKKEEEEQ [RPN1] | 3 ± 0.059 | 2.98 ± 0.092 | 3.01 ± 0.042 | 3.16 ± 0.058
PNALKPLSESLRLVDDD [RRP6] | 3.15 ± 0.091 | 3.34 ± 0.081 | 2.82 ± 0.093 | 3.23 ± 0.055
TNFSPTPANNGENAAEK [SNF2] | 2.42 ± 0.067 | 2.77 ± 0.072 | 2.21 ± 0.074 | 2.81 ± 0.05
RPKKITGWITQSTPVLL [RPN1] | 2.21 ± 0.048 | 2.11 ± 0.043 | 2.3 ± 0.057 | 2.18 ± 0.035
LLGKESFKKIIKFLLTF [YCS4] | 1.45 ± 0.063 | 1.57 ± 0.11 | 1.18 ± 0.16 | 1.65 ± 0.06
TSPGFGVSSPGFSPTSP [RPO21] | 2.7 ± 0.077 | 2.66 ± 0.071 | 2.5 ± 0.058 | 2.93 ± 0.043
ISLSFSRPASYGYFSVG [SIR4] | 1.78 ± 0.073 | 1.82 ± 0.06 | 1.81 ± 0.11 | 2.07 ± 0.052
HKCDELITLFNKGELET [RPO31] | 2.72 ± 0.095 | 3.15 ± 0.07 | 2.98 ± 0.094 | 2.92 ± 0.1
PAGFTHKLSNWLFGWND [YDL088C/ASM4] | 2.86 ± 0.073 | 3.07 ± 0.067 | 3.33 ± 0.053 | 2.96 ± 0.043
WELYTDFNEIVQYLSGA [POP3] | 2.55 ± 0.13 | 2.31 ± 0.12 | 2.4 ± 0.075 | 2.43 ± 0.075

Sequence | protein stability index (doa10∆) | protein stability index (pdr5∆) | protein stability index (san1∆) | protein stability index (ubr1∆)
VEGHLFEIIDEASKKSA [FAS1] | 3.26 ± 0.17 | 3.5 ± 0.15 | 3.22 ± 0.06 | 3.33 ± 0.073
PKMGVSSSSLECATCHG [RPO31] | 2.97 ± 0.085 | 3.34 ± 0.049 | 3.32 ± 0.097 | 3.2 ± 0.056
RNSYPASFYSVNTEKKT [RPN3] | 3.4 ± 0.29 | 3.06 ± 0.13 | 2.82 ± 0.068 | 3.46 ± 0.14
KRSTVPLNDGFVDLVEH [YML103C/NUP188] | 3.06 ± 0.09 | 2.97 ± 0.093 | 3.37 ± 0.12 | 2.69 ± 0.053
SASLFKQRKNPRRIAWT [RPL24A] | 2.55 ± 0.11 | 2.9 ± 0.097 | 2.96 ± 0.087 | 3.08 ± 0.059
GYIKNNKKIYQWNKLTS [POP6] | 2.93 ± 0.085 | 2.91 ± 0.089 | 2.89 ± 0.072 | 3.06 ± 0.081
GNVLLNATVVDSFKYEP [YLR335W/NUP2] | 2.92 ± 0.074 | 3.02 ± 0.1 | 3.05 ± 0.081 | 2.62 ± 0.17
SFLESVIRDSVTYTEHA [HHF1] | 2.82 ± 0.077 | 2.29 ± 0.064 | 2.17 ± 0.058 | 2.47 ± 0.049
QTIEMITQIVEKDFCTS [SRB8] | 2.86 ± 0.054 | 3.08 ± 0.058 | 2.93 ± 0.047 | 3.02 ± 0.048
PTPAIIKPKPLWSGKQI [RPO21] | 2 ± 0.11 | 2.5 ± 0.093 | 2.48 ± 0.08 | 2.54 ± 0.098
RGFGKINKQRVPLSDNA [RPL7A] | 3.03 ± 0.091 | 3.5 ± 0.11 | 3.29 ± 0.094 | 2.91 ± 0.066
LSQVYPTLVRSVISGNL [CSN12] | 2.54 ± 0.072 | 2.92 ± 0.08 | 2.83 ± 0.1 | 2.48 ± 0.078
SKAQQKTAEQVAAERAA [RPL7A] | 2.84 ± 0.064 | 2.88 ± 0.052 | 2.74 ± 0.054 | 2.68 ± 0.049
STFENRNVGKTLVNKST [RPS1A] | 2.91 ± 0.085 | 2.74 ± 0.059 | 3.09 ± 0.055 | 3.14 ± 0.068
SVKFTHIAHTLPEKVNF [SSN2] | 2.17 ± 0.05 | 2.28 ± 0.042 | 2.2 ± 0.066 | 1.92 ± 0.029
GVANTDTAGEESQQQDE [SWI3] | 3.45 ± 0.1 | 3.55 ± 0.085 | 3.33 ± 0.062 | 3.43 ± 0.086
LNYTVINFKSREAIRPG [AAR2] | 3.07 ± 0.069 | 3.09 ± 0.068 | 3.15 ± 0.058 | 3.17 ± 0.042
IYPRTVIDIEIHVLEQD [SKI6] | 1.42 ± 0.055 | 1.88 ± 0.049 | 1.6 ± 0.15 | 1.83 ± 0.041
MMQDPQMQQMAKQFGMG [SRP54] | 3.15 ± 0.039 | 2.93 ± 0.043 | 3.03 ± 0.031 | 2.75 ± 0.027
KHGAKKVAKRTKIKPFI [RPL27A] | 2.91 ± 0.081 | 2.97 ± 0.082 | 2.95 ± 0.059 | 3.24 ± 0.035
EELRGQQTEHETEIKDL [SMC4] | 3.34 ± 0.13 | 3.43 ± 0.094 | 3.48 ± 0.067 | 3.37 ± 0.053
GNGNVSESDIINNLPPE [YCG1] | 2.85 ± 0.24 | 2.85 ± 0.13 | 2.95 ± 0.27 | 2.78 ± 0.15
IYNGKAFNQVEIRPEML [RPS15] | 2.9 ± 0.12 | 3.04 ± 0.18 | 3.39 ± 0.11 | 3.26 ± 0.14
FEIIFPPTDTNVEESVS [POP5] | 2.91 ± 0.091 | 2.68 ± 0.085 | 2.47 ± 0.071 | 3.09 ± 0.12
IGGLLSKVREEVGDVCI [RPO31] | 2.13 ± 0.1 | 1.86 ± 0.067 | 2.11 ± 0.11 | 2.79 ± 0.11
ESINNVVDQLWSEISNE [RPN2] | 2.77 ± 0.065 | 2.94 ± 0.053 | 2.83 ± 0.096 | 2.63 ± 0.041
